According to patent publication US9993536B2, “Peptides and combination of peptides and scaffolds for use in immunotherapy against renal cell carcinoma (RCC) and other cancers” (immatics biotechnologies GmbH, priority 2015, dated 2018):

How the values were obtained:
CD8+ T cells = experiment: In vitro T-cell priming assay with aAPCs loaded with peptide/MHC complexes and anti-CD28 (immunogenicity, multimer staining); assay type: cell-based, human; details: for Wells positive [%]: in vitro immunogenicity, HLA class I peptides, percentage of positive wells; for in vitro immunogenicity: donors / in vitro immunogenicity: wells: healthy HLA-A*02+ donors; for in vitro immunogenicity: donors: share of positive donors; for in vitro immunogenicity: wells: share of positive wells
Text: In order to obtain information regarding the immunogenicity of the TUMAPs of the present invention, the inventors performed investigations using an in vitro T-cell priming assay based on repeated stimulations of CD8+ T cells with artificial antigen presenting cells (aAPCs) loaded with peptide/MHC complexes and anti-CD28 antibody.
In order to perform in vitro stimulations by artificial antigen presenting cells loaded with peptide-MHC complex (pMHC) and anti-CD28 antibody, the inventors first isolated CD8+ T cells from fresh HLA-A*02 leukapheresis products via positive selection using CD8 microbeads (Miltenyi Biotec, Bergisch-Gladbach, Germany) of healthy donors obtained from the University clinics Mannheim, Germany, after informed consent.
PBMCs and isolated CD8+ lymphocytes were incubated in T-cell medium (TCM) until use consisting of RPMI-Glutamax (Invitrogen, Karlsruhe, Germany) supplemented with 10% heat inactivated human AB serum (PAN-Biotech, Aidenbach, Germany), 100 U/ml Penicillin/100 μg/ml Streptomycin (Cambrex, Cologne, Germany), 1 mM sodium pyruvate (CC Pro, Oberdorla, Germany), 20 μg/ml Gentamycin (Cambrex). 2.5 ng/ml IL-7 (PromoCell, Heidelberg, Germany) and 10 U/ml IL-2 (Novartis Pharma, Nürnberg, Germany) were also added to the TCM at this step.
Generation of pMHC/anti-CD28 coated beads, T-cell stimulations and readout was performed in a highly defined in vitro system using four different pMHC molecules per stimulation condition and 8 different pMHC molecules per readout condition.
The purified co-stimulatory mouse IgG2a anti human CD28 Ab 9.3 (Jung et al., 1987) was chemically biotinylated using Sulfo-N-hydroxysuccinimidobiotin as recommended by the manufacturer (Perbio, Bonn, Germany). Beads used were 5.6 μm diameter streptavidin coated polystyrene particles (Bangs Laboratories, Illinois, USA).
pMHC used for positive and negative control stimulations were A*0201/MLA-001 (peptide […] (SEQ ID NO. 152) from modified Melan-A/MART-1) and A*0201/DDX5-001 ([…] from DDX5 (SEQ ID NO. 153)), respectively.
800.000 beads/200 μl were coated in 96-well plates in the presence of 4×12.5 ng different biotin-pMHC, washed and 600 ng biotin anti-CD28 were added subsequently in a volume of 200 μl. Stimulations were initiated in 96-well plates by co-incubating […] CD8+ T cells with 2×10^5 washed coated beads in 200 μl TCM supplemented with 5 ng/ml IL-12 (PromoCell) for 3 days at 37° C. Half of the medium was then exchanged by fresh TCM supplemented with 80 U/ml IL-2 and incubating was continued for 4 days at 37° C. This stimulation cycle was performed for a total of three times. For the pMHC multimer readout using 8 different pMHC molecules per condition, a two-dimensional combinatorial coding approach was used as previously described (Andersen et al., 2012) with minor modifications encompassing coupling to 5 different fluorochromes. Finally, multimeric analyses were performed by staining the cells with Live/dead near IR dye (Invitrogen, Karlsruhe, Germany), CD8-FITC antibody clone SK1 (BD, Heidelberg, Germany) and fluorescent pMHC multimers. For analysis, a BD LSRII SORP cytometer equipped with appropriate lasers and filters was used. Peptide specific cells were calculated as percentage of total CD8+ cells. Evaluation of multimeric analysis was done using the FlowJo software (Tree Star, Oregon, USA). In vitro priming of specific multimer+ CD8+ lymphocytes was detected by comparing to negative control stimulations.

HLA-A*02:01 = HLA-A*02:01 (Homo sapiens, UniProt P04439, D140Y/D185E/D98H/E176V/E277Q/G131W/G231S/I119V/I121R/I166T/I218V/L300P/L318F/N151K/N90K/P208A/P217A/Q86G/Q94H/R138H/R169H/T345S); experiment: MHC binding assay (UV-ligand exchange, beta2m ELISA); details: peptide exchange yield, HLA-A*02:01, UV-ligand exchange
Text: Candidate peptides for T cell based therapies according to the present invention were further tested for their MHC binding capacity (affinity). The individual peptide-MHC complexes were produced by UV-ligand exchange, where a UV-sensitive peptide is cleaved upon UV-irradiation, and exchanged with the peptide of interest as analyzed. Only peptide candidates that can effectively bind and stabilize the peptide-receptive MHC molecules prevent dissociation of the MHC complexes. To determine the yield of the exchange reaction, an ELISA was performed based on the detection of the light chain (β2m) of stabilized MHC complexes. The assay was performed as generally described in Rodenko et al. (Rodenko et al., 2006).
96 well MAXISorp plates (NUNC) were coated over night with 2 ug/ml streptavidin in PBS at room temperature, washed 4× and blocked for 1 h at 37° C. in 2% BSA containing blocking buffer. Refolded HLA-A*02:01/MLA-001 monomers served as standards, covering the range of 15-500 ng/ml. Peptide-MHC monomers of the UV-exchange reaction were diluted 100 fold in blocking buffer. Samples were incubated for 1 h at 37° C., washed four times, incubated with 2 ug/ml HRP conjugated anti-β2m for 1 h at 37° C., washed again and detected with TMB solution that is stopped with […]. Absorption was measured at 450 nm. Candidate peptides that show a high exchange yield (preferably higher than 50%, most preferred higher than 75%) are generally preferred for a generation and production of antibodies or fragments thereof, and/or T cell receptors or fragments thereof, as they show sufficient avidity to the MHC molecules and prevent dissociation of the MHC complexes.

| Substance | Peptide exchange (MHC class I binding score) (HLA-A*02:01) | also measured |
| --- | --- | --- |
| 1 (ALIVSLPYL; listed as Homo sapiens) [compound 1] | +++ (≥50 = +++) | Wells positive [%] (CD8+ T cells): + (<20% = +) |
| 2 (ILWREVVTL; listed as Homo sapiens) [compound 2] | +++ (≥50 = +++) | Wells positive [%] (CD8+ T cells): + (<20% = +) |
| 3 (RLLGEVQAL; listed as Homo sapiens) [compound 3] | ++ (≥20% = ++) | Wells positive [%] (CD8+ T cells): + (<20% = +) |
| 6 (VLFELSKTV; listed as Homo sapiens) [compound 6] | +++ (≥50 = +++) | Wells positive [%] (CD8+ T cells): + (<20% = +) |
| 7 (FLLSLIDRL; listed as Homo sapiens) [compound 7] | +++ (≥50 = +++) | Wells positive [%] (CD8+ T cells): + (<20% = +) |
| 9 (ILLQKPDSV; listed as Homo sapiens) [compound 9] | ++ (≥20% = ++) | Wells positive [%] (CD8+ T cells): + (<20% = +) |
| 15 (ILIKHLVKV; listed as Homo sapiens) [compound 15] | ++ (≥20% = ++) | Wells positive [%] (CD8+ T cells): + (<20% = +) |
| 16 (FMPEELPQL; listed as Homo sapiens) [compound 16] | ++ (≥20% = ++) | Wells positive [%] (CD8+ T cells): + (<20% = +) |
| 20 (AVANTTFTV; listed as Homo sapiens) [compound 20] | ++ (≥20% = ++) | Wells positive [%] (CD8+ T cells): + (<20% = +) |
| 29 (ILLDLEQAL; listed as Homo sapiens) [compound 29] | +++ (≥50 = +++) | Wells positive [%] (CD8+ T cells): + (<20% = +) |
| 81 (SLLPALPKL; listed as Homo sapiens) [compound 81] | ++ (≥20% = ++) | – |
| 82 (SLLQATDFMSL; listed as Homo sapiens) [compound 82] | +++ (≥50 = +++) | – |
| 83 (IQWSIVPEV; listed as Homo sapiens) [compound 83] | +++ (≥50 = +++) | – |
| 84 (YLMDEGAHL; listed as Homo sapiens) [compound 84] | ++ (≥20% = ++) | – |
| 85 (FVMSEIRTV; listed as Homo sapiens) [compound 85] | +++ (≥50 = +++) | – |
| 86 (GLLQGKLALL; listed as Homo sapiens) [compound 86] | ++ (≥20% = ++) | – |
| 88 (TLAELHISL; listed as Homo sapiens) [compound 88] | ++ (≥20% = ++) | – |
| 89 (SLLLAVTEV; listed as Homo sapiens) [compound 89] | ++ (≥20% = ++) | – |
| 90 (FTLEKNFVI; listed as Homo sapiens) [compound 90] | ++ (≥20% = ++) | – |
| 91 (MLLSSLVSL; listed as Homo sapiens) [compound 91] | ++ (≥20% = ++) | – |
| 92 (FLFRDILEL; listed as Homo sapiens) [compound 92] | +++ (≥50 = +++) | – |
| 93 (GVMAGDIYSV; listed as Homo sapiens) [compound 93] | ++++ (≥75% = ++++) | – |

| Substance | Peptide exchange (MHC class I binding score) (HLA-A*02:01) | also measured |
| --- | --- | --- |
| 94 (ILHHKVYDL; listed as Homo sapiens) [compound 94] | ++ (≥20% = ++) | – |
| 96 (TLAETLVNL; listed as Homo sapiens) [compound 96] | +++ (≥50 = +++) | – |
| 97 (TLISELVQA; listed as Homo sapiens) [compound 97] | ++ (≥20% = ++) | – |
| 99 (GLAPHLEQI; listed as Homo sapiens) [compound 99] | ++ (≥20% = ++) | – |
| 100 (KLNVAPLAV; listed as Homo sapiens) [compound 100] | ++ (≥20% = ++) | – |
| 101 (HIYDKAFITV; listed as Homo sapiens) [compound 101] | ++ (≥20% = ++) | – |
| 102 (LLFDVHTTL; listed as Homo sapiens) [compound 102] | +++ (≥50 = +++) | – |
| 103 (KLQDGLLHI; listed as Homo sapiens) [compound 103] | ++ (≥20% = ++) | – |
| 104 (ALFEGVVRQI; listed as Homo sapiens) [compound 104] | +++ (≥50 = +++) | – |
| 105 (ALADLDELLIRA; listed as Homo sapiens) [compound 105] | +++ (≥50 = +++) | – |
| 106 (VLMDLKALL; listed as Homo sapiens) [compound 106] | +++ (≥50 = +++) | – |
| 107 (VLMDLKALLL; listed as Homo sapiens) [compound 107] | +++ (≥50 = +++) | – |
| 108 (VLISVLQAI; listed as Homo sapiens) [compound 108] | ++ (≥20% = ++) | – |
| 109 (YLWSRVEKL; listed as Homo sapiens) [compound 109] | ++++ (≥75% = ++++) | – |
| 110 (LLDLHSYLL; listed as Homo sapiens) [compound 110] | ++ (≥20% = ++) | – |
| 111 (TLLETEMLL; listed as Homo sapiens) [compound 111] | ++ (≥20% = ++) | – |
| 112 (LLFDHLEPIEL; listed as Homo sapiens) [compound 112] | +++ (≥50 = +++) | – |
| 113 (SLFDWNVKL; listed as Homo sapiens) [compound 113] | +++ (≥50 = +++) | – |
| 114 (ALAVNISAA; listed as Homo sapiens) [compound 114] | +++ (≥50 = +++) | – |
| 123 (YVDPVITSI; listed as Homo sapiens) [compound 123] | – | in vitro immunogenicity: donors (CD8+ T cells): ++++ (>=70% = ++++); in vitro immunogenicity: wells (CD8+ T cells): + (<20% = +) |
| 127 (VLAPLFVYL; listed as Homo sapiens) [compound 127] | – | in vitro immunogenicity: donors (CD8+ T cells): ++++ (>=70% = ++++); in vitro immunogenicity: wells (CD8+ T cells): ++ (20%-49% = ++) |
| 143 (ALFVRLLALA; listed as Homo sapiens) [compound 143] | – | in vitro immunogenicity: donors (CD8+ T cells): +++ (50%-69% = +++); in vitro immunogenicity: wells (CD8+ T cells): + (<20% = +) |
